Test results as given in PMC9835228 (Journal of Translational Medicine, 2023).
Values joined by “and” are separate entries in the source; they are usually repeats but may differ in a detail not shown here. Identical values can stand only once. Like-named read-outs stand apart in the source and are kept apart here. Residues, ends and D or L forms follow the SMILES beside them.

Assays:
HER2 protein [1] = molecular target: HER2 protein (Homo sapiens, UniProt P04626); test: Surface plasmon resonance of peptides toward HER2 protein; assay type: binding
clinical = conditions: female, human, in vivo, iv, 11.1 MBq per kilogram body weight, total radioactivity, mean ± SD
Method: (§1) The wrist or elbow on the same side as the healthy breast was selected for injection. […] On PET images, the volumes of interest (VOIs) were drawn over tumors using a 40% threshold, and the software automatically obtained the radioactivity concentration and the maximum and the mean standardized uptake values (SUVmax and SUVmean, respectively). T/B ratios were calculated from SUVmean values for further analysis. The contralateral breast tissue was considered the background for calculations. For semiquantitative analyses of SPECT images, the same VOI method as above was adopted to obtain the maximum and the average count values (Countsmax and Countsavg, respectively) of the breast tumors. The Countsavg value was compared between the tumor region and the contralateral region to obtain the T/B ratio. Calculations were performed using SPSS 23.0 software (IBM SPSS, Chicago, IL, USA) and GraphPad Prism 8 (GraphPad Software, San Diego, CA 92,108). After surgery, HER2 expression status was evaluated by IHC in tumor pathological sections of all 34 patients. For patients with an IHC score of HER2 (2 +), FISH was further performed.
(§2) Quantitative data were expressed as the mean ± SD. Statistical analysis of image parameters and biodistribution was performed with Student’s t test in Prism 7.0 (GraphPad Software, Inc., USA). P < 0.05 was considered statistically significant. Correlation analysis of the SUV data of clinical images and the IHC results was performed with SPSS Statistics 23.0 software (IBM SPSS, USA). The correlation between the SPECT T/B ratio and HER2 status was evaluated by Wilcoxon’s rank sum test. Spearman’s rank correlation analysis was performed on the SPECT T/B ratio and the immunoreactivity score. ROC curve analysis was performed to determine an optimal cutoff value for detecting HER2-positive (2 + , 3 +) breast cancer and to compare the diagnostic performance of different methods.

in vivo [2] = conditions: female, NOD SCID, mouse, tumor (MDA-MB-468 xenograft), 0.37 MBq, total radioactivity
Method: (§3) The animals were randomly chosen for in vivo assays when the tumor size reached 100–150 mm^3 (1–2 weeks after inoculation).
(§4) Each mouse was injected with 0.37 MBq (~ 0.03 µg) of tracer to evaluate the distribution of the probe in tumors and major organs (4 mice/group). The mice were sacrificed and dissected at 0.5, 1 and 2 h p.i. Blood, tumor, liver, kidney and other major organs were collected and weighed, and their radioactivity was counted in a Wallac 1480 γ-counter (Perkin-Elmer, Waltham, MA). […] All biodistribution data are presented as the percentage of injected dose per gram of tissue (%ID/g).

[3] = radio-HPLC (Fig. 1B)
[4] = In vivo metabolic stability (urine, radio-HPLC); conditions: ~37 MBq i.v., mouse urine collected p.i. (2 h, b63; 0.5 h for ^99mTc-H10F in Fig. S3)
[5] = system: SK-BR-3 tumors (HER2-positive); test: Small-animal nanoScan SPECT/CT imaging in the SK-BR-3 tumor model; assay type: in vivo, female NOD SCID mice
Method: At 0.5, 1 and 2 h p.i., the mice were anesthetized by inhalation of 2% isoflurane and imaged using a nanoScan SPECT/CT system (Mediso Inc., Hungary) following a standard protocol. Briefly, the small-animal SPECT images were acquired with the technetium-99 m parameters (peak 140 keV with 20% width, frame time 25 s), and CT images were acquired with default settings (50 kVp, 0.67 mA, and rotation 210°, exposure time 300 ms). All SPECT/CT images were reconstructed and further analyzed by Fusion software (Mediso Inc., Hungary), including drawing volumes of interest on tumors and major organs as well as calculating the tumor uptake (%ID/cc) accordingly. […] Small-animal imaging of the monomer tracer ^99mTc-HP-rk was also conducted as a control.

[6] = system: SK-BR-3 tumor (HER2-positive); conditions: 0.5, 1 and 2 h p.i.; 0.37 MBq i.v.; 4 mice/group
Method: as §3, §4

[7] = system: HER2 expression in breast tumors
Method: as §1, §2

in vivo [8] = conditions: female, NOD SCID, mouse, tumor (SK-BR-3 xenograft), iv, 0.37 MBq, total radioactivity
Method: as §3, §4

[9] = 1.85 MBq i.v., blood 1-240 min p.i., γ-counter, seven mice, fitted in Prism 7.0
Method: Blood was drawn through the orbit of the mouse at 1, 3, 8, 15, 30, 60, 90, 120, 180, and 240 min p.i. The radioactivity was counted in a γ-counter, and the percentage injected dose per gram of blood (%ID/g) at each time point was calculated. The slow half-life and fast half-life were analyzed and calculated by Prism 7.0.

[10] = Dosimetry estimation (OLINDA/EXM); set-up: species or system human; conditions: for effective radiation dose to the body: 11.1 MBq/kg
Method: The dosimetry calculation was performed according to the European Association of Nuclear Medicine Dosimetry Guidance and calculated using OLINDA/EXM (version 1.1; Vanderbilt University). The radiation effective dose (mSv/MBq) of the main organs of the human body was estimated from the biodistribution data of the SK-BR-3 tumor models (Additional file 1: Table S1).
The radiation effective dose (mSv/MBq) of the main organs of the human body was estimated from the biodistribution data of the SK-BR-3 tumor model (Table S1).

in vivo [11] = conditions: female, NOD SCID, mouse, tumor (MCF7 xenograft), 0.37 MBq, total radioactivity
Method: as §3, §4

[12] = 74 MBq i.v., n = 5
Method: Ten 4-week-old female ICR mice were randomly divided into the experimental and control groups. The mice were numbered, weighed and photographed. […] The mice in the control group were injected with the same volume of saline. After 120 h, the mice were photographed again, their body weight was recorded, and the behavioral differences were observed. After the mice were sacrificed, they were dissected to observe the morphological differences in the organs.

[13] = molecular target: HER2 on SK-BR-3 cells (HER2-positive human breast cancer cell line) (human (endogenous in SK-BR-3)) (UniProt P04626)
HER2 protein [14] = molecular target: T1, HER2 protein (human, UniProt P04626 23-652); test: SPR; Plexera PlexArray HT; sulfhydryl peptides printed on a bare gold chip through the cysteine thiol, blocked with 5% nonfat milk; protein flowed over in PBS (HER2 at 70.4, 35.2, 17.6 and 8.8 nM); regeneration 0.5% H3PO4; EGFR, HER3 and HER4 as controls with the same procedure; conditions: both partners purified
T1 construct: human epidermal growth factor receptor 2 (HER2), soluble protein used as SPR analyte; also called human epidermal growth factor receptor 2

[15] = Female, OLINDA/EXM 1.1, from mouse SK-BR-3 biodistribution
[16] = Male, OLINDA/EXM 1.1, from mouse SK-BR-3 biodistribution

CC(C)C[C@@H](NC(=O)[C@@H](CCCNC(=N)N)NC(=O)[C@@H](CC(C)C)NC(=O)[C@@H](CCC(=O)O)NC(=O)[C@@H](Cc1c[nH]c2ccccc12)NC(=O)[C@@H](CC(N)=O)NC(=O)[C@@H](CCCNC(=N)N)NC(=O)CCCCCCCNC(=O)CC[C@H](N)C(=O)NCCCCCCCC(=O)N[C@H](CCCNC(=N)N)C(=O)N[C@H](CC(N)=O)C(=O)N[C@H](Cc1c[nH]c2ccccc12)C(=O)N[C@H](CCC(=O)O)C(=O)N[C@H](CC(C)C)C(=O)N[C@H](CCCNC(=N)N)C(=O)N[C@H](CC(C)C)C(=O)N[C@H](CCCCN)C(=O)O)C(=O)N[C@H](CCCCN)C(=O)O [Ark2]
Kd (HER2 protein [1]; read-out: dissociation constant (KD) to HER2 protein, SPR, Plexera PlexArray HT, Cys-peptides printed on gold chip, HER2 protein 8.8-70.4 nM in PBS, from fitted association/dissociation rates): 10 nM

CC(C)C[C@H](NC(=O)[C@H](CCCNC(=N)N)NC(=O)[C@H](CC(C)C)NC(=O)[C@@H](N)CCCCN)C(=O)N[C@@H](CCC(=O)O)C(=O)N[C@@H](Cc1c[nH]c2ccccc12)C(=O)N[C@@H](CC(N)=O)C(=O)N[C@@H](CCCNC(=N)N)C(=O)O [H10F] (H-KLRLEWNR-OH)
Kd (HER2 protein [1]): 70 nM and 70.2 nM

CC(C)C[C@@H](NC(=O)[C@@H](CCCNC(=N)N)NC(=O)[C@@H](CC(C)C)NC(=O)[C@@H](CCC(=O)O)NC(=O)[C@@H](Cc1c[nH]c2ccccc12)NC(=O)[C@@H](CC(N)=O)NC(=O)[C@@H](CCCNC(=N)N)NC(=O)CCCCCCCNC(=O)CC[C@H](NC(=O)CCOCCOCCOCCOCCNC(=O)c1ccc(NN=Cc2ccccc2S(=O)(=O)O)nc1)C(=O)NCCCCCCCC(=O)N[C@H](CCCNC(=N)N)C(=O)N[C@H](CC(N)=O)C(=O)N[C@H](Cc1c[nH]c2ccccc12)C(=O)N[C@H](CCC(=O)O)C(=O)N[C@H](CC(C)C)C(=O)N[C@H](CCCNC(=N)N)C(=O)N[C@H](CC(C)C)C(=O)N[C@H](CCCCN)C(=O)O)C(=O)N[C@H](CCCCN)C(=O)O [^99mTc-HP-Ark2, metal not drawn]
tissue to tissue ratio at 0.5 h (clinical; T/B ratio of HER2-negative tumors, IHC (2+) plus FISH+ or IHC (3+) criterion, n = 24): 1.54 ± 1.03
tissue to tissue ratio at 0.5 h (clinical; T/B ratio of HER2-negative tumors, negative = IHC (0/1+), n = 17): 1.16 ± 0.29
tissue to tissue ratio at 0.5 h (clinical; T/B ratio of HER2-positive tumors, positive = IHC (2+) or (3+), n = 19): 2.49 ± 1.13
tissue to tissue ratio at 0.5 h (clinical; T/B ratio of HER2-positive tumors, positive = IHC (2+) plus FISH+ or IHC (3+), n = 12): 2.5 ± 0.88
tissue uptake at 0.5 h (in vivo [2]): 1.08 ± 0.06 %ID/g
in vitro stability [3]: excellent in vitro and in vivo stability
in vivo metabolic stability [4]: excellent in vitro and in vivo stability
imaging intensity in tumors compared with monomer tracer ([5]; SK-BR-3 model, 0.5 h p.i.): stronger than that of ^99mTc-HP-rk
tumor uptake on imaging with coinjected cold rk peptide ([5]; blocking dose 25 mg/kg rk, 0.5 h p.i.): significantly blocked tumor uptake
tumor uptake on imaging with coinjected cold trastuzumab ([5]; blocking dose 30 mg/kg trastuzumab, 0.5 h p.i.): did not block tumor uptake
tumor visualization by SPECT/CT ([5]; ~37 MBq i.v., 0.5, 1 and 2 h p.i., subcutaneous or in situ, tumors as small as ~20 mm^3): clearly visualized
tumor uptake compared with other organs [6]: higher tumor uptake than uptake in other organs (except for kidneys)
adverse events related to tracer administration ([7]; 34 patients, ~11.1 MBq/kg i.v.): No adverse events
detection of metastatic lymph nodes ([7]; patients with HER2-positive tumors and ipsilateral lymph node metastases (Nos. 4, 5, 7, 15, 24, 29)): all 6 patients
kidney uptake in patients ([7]; quantified biodistribution from SPECT/CT, n = 34 (Fig. S10)): high uptake
tissue uptake at 0.5 h (in vivo [8]): 3.99 ± 0.15 %ID/g
fast half-life in blood [9]: 3.12 min
slow half-life in blood [9]: 32.45 min
effective radiation dose to the body ([10]; 50 kg females): ~5.72 mSv
effective radiation dose to the body ([10]; 65 kg males): approximately 6.62 mSv
Effective Dose Equivalent, Adrenals [10, 15]: 5.36E-04 mSv/MBq
Effective Dose Equivalent, Brain [10, 15]: 0.00E+00 mSv/MBq
Effective Dose Equivalent, Breasts [10, 15]: 4.44E-05 mSv/MBq
Effective Dose Equivalent, Gallbladder Wall [10, 15]: 2.60E-04 mSv/MBq
Effective Dose Equivalent, Heart Wall [10, 15]: 0.00E+00 mSv/MBq
Effective Dose Equivalent, Kidneys [10, 15]: 7.87E-03 mSv/MBq
Effective Dose Equivalent, LLI Wall [10, 15]: 0.00E+00 mSv/MBq
Effective Dose Equivalent, Liver [10, 15]: 0.00E+00 mSv/MBq
Effective Dose Equivalent, Lungs [10, 15]: 1.90E-04 mSv/MBq
Effective Dose Equivalent, Muscle [10, 15]: 0.00E+00 mSv/MBq
Effective Dose Equivalent, Osteogenic Cells [10, 15]: 6.07E-05 mSv/MBq
Effective Dose Equivalent, Ovaries [10, 15]: 2.49E-04 mSv/MBq
Effective Dose Equivalent, Pancreas [10, 15]: 3.43E-04 mSv/MBq
Effective Dose Equivalent, Red Marrow [10, 15]: 2.27E-04 mSv/MBq
Effective Dose Equivalent, Skin [10, 15]: 0.00E+00 mSv/MBq
Effective Dose Equivalent, Small Intestine [10, 15]: 0.00E+00 mSv/MBq
Effective Dose Equivalent, Spleen [10, 15]: 4.89E-04 mSv/MBq
Effective Dose Equivalent, Stomach Wall [10, 15]: 0.00E+00 mSv/MBq
Effective Dose Equivalent, Thymus [10, 15]: 0.00E+00 mSv/MBq
Effective Dose Equivalent, Thyroid [10, 15]: 2.78E-06 mSv/MBq
Effective Dose Equivalent, ULI Wall [10, 15]: 0.00E+00 mSv/MBq
Effective Dose Equivalent, Urinary Bladder Wall [10, 15]: 0.00E+00 mSv/MBq
Effective Dose Equivalent, Uterus [10, 15]: 0.00E+00 mSv/MBq
Effective Dose Equivalent, Adrenals [10, 16]: 4.04E-04 mSv/MBq
Effective Dose Equivalent, Brain [10, 16]: 0.00E+00 mSv/MBq
Effective Dose Equivalent, Breasts [10, 16]: 3.64E-05 mSv/MBq
Effective Dose Equivalent, Gallbladder Wall [10, 16]: 2.31E-04 mSv/MBq
Effective Dose Equivalent, Heart Wall [10, 16]: 0.00E+00 mSv/MBq
Effective Dose Equivalent, Kidneys [10, 16]: 7.26E-03 mSv/MBq
Effective Dose Equivalent, LLI Wall [10, 16]: 0.00E+00 mSv/MBq
Effective Dose Equivalent, Liver [10, 16]: 0.00E+00 mSv/MBq
Effective Dose Equivalent, Lungs [10, 16]: 1.38E-04 mSv/MBq
Effective Dose Equivalent, Muscle [10, 16]: 0.00E+00 mSv/MBq
Effective Dose Equivalent, Osteogenic Cells [10, 16]: 4.73E-05 mSv/MBq
Effective Dose Equivalent, Pancreas [10, 16]: 2.81E-04 mSv/MBq
Effective Dose Equivalent, Red Marrow [10, 16]: 1.94E-04 mSv/MBq
Effective Dose Equivalent, Skin [10, 16]: 0.00E+00 mSv/MBq
Effective Dose Equivalent, Small Intestine [10, 16]: 0.00E+00 mSv/MBq
Effective Dose Equivalent, Spleen [10, 16]: 3.96E-04 mSv/MBq
Effective Dose Equivalent, Stomach Wall [10, 16]: 0.00E+00 mSv/MBq
Effective Dose Equivalent, Testes [10, 16]: 0.00E+00 mSv/MBq
Effective Dose Equivalent, Thymus [10, 16]: 0.00E+00 mSv/MBq
Effective Dose Equivalent, Thyroid [10, 16]: 2.27E-06 mSv/MBq
Effective Dose Equivalent, ULI Wall [10, 16]: 0.00E+00 mSv/MBq
Effective Dose Equivalent, Urinary Bladder Wall [10, 16]: 0.00E+00 mSv/MBq
Effective Dose Equivalent, Uterus [10, 16]: 0.00E+00 mSv/MBq
tissue uptake at 0.5 h (in vivo [11]): 1.44 ± 0.08 %ID/g
body weight after high-dose injection ([12]; 120 h): did not decrease
organ morphology after dissection ([12]; 120 h): no abnormal organs
behavior after high-dose injection ([12]; 120 h after injection): no abnormal behavior

CC(C)C[C@@H](NC(=O)[C@@H](CCCNC(=N)N)NC(=O)[C@@H](CC(C)C)NC(=O)[C@@H](CCC(=O)O)NC(=O)[C@@H](Cc1c[nH]c2ccccc12)NC(=O)[C@@H](CC(N)=O)NC(=O)[C@@H](CCCNC(=N)N)NC(=O)CCOCCOCCOCCOCCNC(=O)c1ccc(NN=Cc2ccccc2S(=O)(=O)O)nc1)C(=O)N[C@H](CCCCN)C(=O)O [^99mTc-HP-rk, metal not drawn]
tissue uptake at 0.5 h (in vivo [8]): 1.94 ± 0.12 %ID/g

^99mTc-HP-Ark2, ^99mTc-{HYNIC-PEG4-Glu[8-aminooctanoic-D(RNWELRLK)]2/Tricine/TPPTS} (peptide)
tumor uptake in the SK-BR-3 tumor model at 0.5 h p.i. (biodistribution, n = 4) [13]: 3.99 %ID/g
tumor uptake in the SK-BR-3 tumor model at 0.5 h p.i. with coinjection of excess cold rk peptide (blocking group, n = 4) [13]: 1.42 %ID/g

B1: Cys-H10F (sulfhydryl form of the L-peptide H10F, KLRLEWNR) (peptide)
peptide: KLRLEWNR
notes: HER2-targeting L-peptide H10F; also called parental L-peptide; source: synthetic peptide, bought: GL Biochem Ltd
Kd (HER2 protein [14]): 70.2 nM
